We go through 1 substance from PMC7007526.

The assay addresses CPn0678–GFP (Chlamydia pneumoniae). Kind of assay: FRET or BRET. On the technique in general: In BRET a luciferase serves as donor, and the signal depends on an acceptor being close.

The substance “mCherry–SNX9 (from UniProt Q9Y5X1 1-595) (natural protein)” registered an average donor fluorescence lifetime with the acceptor (FLIM-FRET) of 2.6 ns and a reduction of donor fluorescence lifetime (FLIM-FRET) of 256 ps.
